The values below are quoted from earlier work in article PMC6721559.

In this data set the target is Ubc9 (Homo sapiens) (UniProt P63279).
Chain of UniProt P63279 (P63279 2-158): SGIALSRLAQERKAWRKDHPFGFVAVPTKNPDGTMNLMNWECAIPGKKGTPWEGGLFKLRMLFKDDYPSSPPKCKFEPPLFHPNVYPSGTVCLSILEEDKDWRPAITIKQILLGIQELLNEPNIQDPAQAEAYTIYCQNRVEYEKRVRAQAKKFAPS

On to SUMO (from UniProt P63165), for which the dissociation constant Kd was 82 nM.

As usually defined, the Kd is a measure of binding affinity in units of concentration.
